For series [1], the system named is HeLa Kyoto. The series can be described thus: melting temperature (median over replicates), in situ; higher = more thermally stable.
Series [2] concerns HeLa Kyoto. Description: solubility change mitosis vs G1/S (difference of NP-40 vs SDS log2 ratios) (log2 ratio difference); higher = more soluble in mitosis.
For series [3], the system named is HeLa Kyoto. The series can be described thus: thermal stability score vs G1/S (z-score of summed log2 fold changes over temperatures); higher = more thermally stable than in G1/S.
The subject of series [4] is HeLa Kyoto. Description: solubility in G1/S (NP-40 vs SDS abundance) (log2 ratio); higher = more soluble. Particulars: cell cycle stage: G1/S.
Setting [5] is: cell cycle stage: early G1 (4.5 h after nocodazole release).
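Throughout, for melting temperature (median over replicates), in situ: HeLa Kyoto cells synchronized by double thymidine or nocodazole block, proteins quantified by TMT10plex mass spectrometry, three independent biological replicates.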
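Throughout, for solubility change mitosis vs G1/S (difference of NP-40 vs SDS log2 ratios): synchronized HeLa Kyoto cells (double thymidine block for G1/S, nocodazole release for mitosis), protein amounts in NP-40 versus SDS lysates quantified by mass spectrometry, three biological replicates.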
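Throughout, for solubility in G1/S (NP-40 vs SDS abundance): HeLa Kyoto cells arrested at G1/S by double thymidine block, proteins quantified by TMT10plex mass spectrometry in mild NP-40 versus SDS extracts, three biological replicates.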
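Throughout, for thermal stability score vs G1/S (z-score of summed log2 fold changes over temperatures): synchronized HeLa Kyoto cells, proteins quantified by TMT10plex mass spectrometry, three biological replicates, mitosis taken 0.5 h after nocodazole release, G1/S directly after double thymidine block.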

Regarding “MGSMFRSEEVALVQLFLPTAAAYTCVSRLGELGLVEFRDLNASVSAFQRRFVVDVRRCEELEKTFTFLQEEVRRAGLVLPPPKGRLPAPPPRDLLRIQEETERLAQELRDVRGNQQALRAQLHQLQLHAAVLRQGHEPQLAAAHTDGASERTPLLQAPGGPHQDLRVNFVAGAVEPHKAPALERLLWRACRGFLIASFRELEQPLEHPVTGEPATWMTFLISYWGEQIGQKIRKITDCFHCHVFPFLQQEEARLGALQQLQQQSQELQEVLGETERFLSQVLGRVLQLLPPGQVQVHKMKAVYLALNQCSVSTTHKCLIAEAWCSVRDLPALQEALRDSSMEEGVSAVAHRIPCRDMPPTLIRTNRFTASFQGIVDAYGVGRYQEVNPAPYTIITFPFLFAVMFGDVGHGLLMFLFALAMVLAENRPAVKAAQNEIWQTFFRGRYLLLLMGLFSIYTGFIYNECFSRATSIFPSGWSVAAMANQSGWSDAFLAQHTMLTLDPNVTGVFLGPYPFGIDPIWSLAANHLSFLNSFKMKMSVILGVVHMAFGVVLGVFNHVHFGQRHRLLLETLPELTFLLGLFGYLVFLVIYKWLCVWAARAASAPSILIHFINMFLFSHSPSNRLLYPRQEVVQATLVVLALAMVPILLLGTPLHLLHRHRRRLRRRPADRQEENKAGLLDLPDASVNGWSSDEEKAGGLDDEEEAELVPSEVLMHQAIHTIEFCLGCVSNTASYLRLWALSLAHAQLSEVLWAMVMRIGLGLGREVGVAAVVLVPIFAAFAVMTVAILLVMEGLSAFLHALRLHWVEFQNKFYSGTGYKLSPFTFAATDD [TCIRG1]”, the melting temperature in series [1] (cell cycle stage: G1/S) amounted to 53 °C; in series [1] (cell cycle stage: mitosis), 54.1 °C. Also, the “solubility change mitosis (log2)” value in series [2] was determined as 0.0336. For the same sequence, the thermal stability score was -2.43 in series [3] (setting [5]) and -1.47 in series [3] (cell cycle stage: mitosis). In addition, the “solubility in G1/S (log2)” value in series [4] was -0.278.

In the case of “MGSPEGRFHFAIDRGGTFTDVFAQCPGGHVRVLKLLSEDPANYADAPTEGIRRILEQEAGMLLPRDQPLDSSHIASIRMGTTVATNALLERKGERVALLVTRGFRDLLHIGTQARGDLFDLAVPMPEVLYEEVLEVDERVVLHRGEAGTGTPVKGRTGDLLEVQQPVDLGALRGKLEGLLSRGIRSLAVVLMHSYTWAQHEQQVGVLARELGFTHVSLSSEAMPMVRIVPRGHTACADAYLTPAIQRYVQGFCRGFQGQLKDVQVLFMRSDGGLAPMDTFSGSSAVLSGPAGGVVGYSATTYQQEGGQPVIGFDMGGTSTDVSRYAGEFEHVFEASTAGVTLQAPQLDINTVAAGGGSRLFFRSGLFVVGPESAGAHPGPACYRKGGPVTVTDANLVLGRLLPASFPCIFGPGENQPLSPEASRKALEAVATEVNSFLTNGPCPASPLSLEEVAMGFVRVANEAMCRPIRALTQARGHDPSAHVLACFGGAGGQHACAIARALGMDTVHIHRHSGLLSALGLALADVVHEAQEPCSLLYAPETFVQLDQRLSRLEEQCVDALQAQGFPRSQISTESFLHLRYQGTDCALMVSAHQHPATARSPRAGDFGAAFVERYMREFGFVIPERPVVVDDVRVRGTGRSGLRLEDAPKAQTGPPRVDKMTQCYFEGGYQETPVYLLAELGYGHKLHGPCLIIDSNSTILVEPGCQAEVTKTGDICISVGAEVPGTVGPQLDPIQLSIFSHRFMSIAEQMGRILQRTAISTNIKERLDFSCALFGPDGGLVSNAPHIPVHLGAMQETVQFQIQHLGADLHPGDVLLSNHPSAGGSHLPDLTVITPVFWPGQTRPVFYVASRGHHADIGGITPGSMPPHSTMLQQEGAVFLSFKLVQGGVFQEEAVTEALRAPGKVPNCSGTRNLHDNLSDLRAQVAANQKGIQLVGELIGQYGLDVVQAYMGHIQANAELAVRDMLRAFGTSRQARGLPLEVSSEDHMDDGSPIRLRVQISLSQGSAVFDFSGTGPEVFGNLNAPRAVTLSALIYCLRCLVGRDIPLNQGCLAPVRVVIPRGSILDPSPEAAVVGGNVLTSQRVVDVILGAFGACAASQGCMNNVTLGNAHMGYYETVAGGAGAGPSWHGRSGVHSHMTNTRITDPEILESRYPVILRRFELRRGSGGRGRFRGGDGVTRELLFREEALLSVLTERRAFRPYGLHGGEPGARGLNLLIRKNGRTVNLGGKTSVTVYPGDVFCLHTPGGGGYGDPEDPAPPPGSPPQALAFPEHGSVYEYRRAQEAV [OPLAH]”, the melting temperature was 51.1 °C in series [1] (cell cycle stage: G1/S) and 51.3 °C in series [1] (cell cycle stage: mitosis). Also, the “solubility change mitosis (log2)” value in series [2] was -0.171. Besides, the values for the thermal stability score in series [3] (setting [5]) and in series [3] (cell cycle stage: mitosis) were -0.162 and -0.669, respectively. In addition, in series [4], the “solubility in G1/S (log2)” value stood at 0.0511.

As to “MGSQVSVESGALHVVIVGGGFGGIAAASQLQALNVPFMLVDMKDSFHHNVAALRASVETGFAKKTFISYSVTFKDNFRQGLVVGIDLKNQMVLLQGGEALPFSHLILATGSTGPFPGKFNEVSSQQAAIQAYEDMVRQVQRSRFIVVVGGGSAGVEMAAEIKTEYPEKEVTLIHSQVALADKELLPSVRQEVKEILLRKGVQLLLSERVSNLEELPLNEYREYIKVQTDKGTEVATNLVILCTGIKINSSAYRKAFESRLASSGALRVNEHLQVEGHSNVYAIGDCADVRTPKMAYLAGLHANIAVANIVNSVKQRPLQAYKPGALTFLLSMGRNDGVGQISGFYVGRLMVRLTKSRDLFVSTSWKTMRQSPP [AIFM2]”, the melting temperature in series [1] (cell cycle stage: G1/S) is 55.3 °C; in series [1] (cell cycle stage: mitosis) it was 53.7 °C. In series [2], the “solubility change mitosis (log2)” value is -0.209. Moreover, the thermal stability score in series [3] (setting [5]) was -1.05; in series [3] (cell cycle stage: mitosis), -2.26. Moreover, in series [4], the “solubility in G1/S (log2)” value was found to be 0.112.

The sequence “MGSRIKQNPETTFEVYVEVAYPRTGGTLSDPEVQRQFPEDYSDQEVLQTLTKFCFPFYVDSLTVSQVGQNFTFVLTDIDSKQRFGFCRLSSGAKSCFCILSYLPWFEVFYKLLNILADYTTKRQENQWNELLETLHKLPIPDPGVSVHLSVHSYFTVPDTRELPSIPENRNLTEYFVAVDVNNMLHLYASMLYERRILIICSKLSTLTACIHGSAAMLYPMYWQHVYIPVLPPHLLDYCCAPMPYLIGIHLSLMEKVRNMALDDVVILNVDTNTLETPFDDLQSLPNDVISSLKNRLKKVSTTTGDGVARAFLKAQAAFFGSYRNALKIEPEEPITFCEEAFVSHYRSGAMRQFLQNATQLQLFKQFIDGRLDLLNSGEGFSDVFEEEINMGEYAGSDKLYHQWLSTVRKGSGAILNTVKTKANPAMKTVYKFAKDHAKMGIKEVKNRLKQKDIAENGCAPTPEEQLPKTAPSPLVEAKDPKLREDRRPITVHFGQVRPPRPHVVKRPKSNIAVEGRRTSVPSPEQPQPYRTLRESDSAEGDEAESPEQQVRKSTGPVPAPPDRAASIDLLEDVFSNLDMEAALQPLGQAKSLEDLRAPKDLREQPGTFDYQRLDLGGSERSRGVTVALKLTHPYNKLWSLGQDDMAIPSKPPAASPEKPSALLGNSLALPRRPQNRDSILNPSDKEEVPTPTLGSITIPRPQGRKTPELGIVPPPPIPRPAKLQAAGAALGDVSERLQTDRDRRAALSPGLLPGVVPQGPTELLQPLSPGPGAAGTSSDALLALLDPLSTAWSGSTLPSRPATPNVATPFTPQFSFPPAGTPTPFPQPPLNPFVPSMPAAPPTLPLVSTPAGPFGAPPASLGPAFASGLLLSSAGFCAPHRSQPNLSALSMPNLFGQMPMGTHTSPLQPLGPPAVAPSRIRTLPLARSSARAAETKQGLALRPGDPPLLPPRPPQGLEPTLQPSAPQQARDPFEDLLQKTKQDVSPSPALAPAPDSVEQLRKQWETFE [DENND1A]” had a melting temperature in series [1] (cell cycle stage: mitosis) of 53.6 °C. In addition, in series [2], the “solubility change mitosis (log2)” value is -0.0536. In addition, the thermal stability score came to 0.0881 in series [3] (setting [5]) and 1.02 in series [3] (cell cycle stage: mitosis). Further, in series [4], the “solubility in G1/S (log2)” value amounted to 0.079.

As for “MGSSATEIEELENTTFKYLTGEQTEKMWQRLKGILRCLVKQLERGDVNVVDLKKNIEYAASVLEAVYIDETRRLLDTEDELSDIQTDSVPSEVRDWLASTFTRKMGMTKKKPEEKPKFRSIVHAVQAGIFVERMYRKTYHMVGLAYPAAVIVTLKDVDKWSFDVFALNEASGEHSLKFMIYELFTRYDLINRFKIPVSCLITFAEALEVGYSKYKNPYHNLIHAADVTQTVHYIMLHTGIMHWLTELEILAMVFAAAIHDYEHTGTTNNFHIQTRSDVAILYNDRSVLENHHVSAAYRLMQEEEMNILINLSKDDWRDLRNLVIEMVLSTDMSGHFQQIKNIRNSLQQPEGIDRAKTMSLILHAADISHPAKSWKLHYRWTMALMEEFFLQGDKEAELGLPFSPLCDRKSTMVAQSQIGFIDFIVEPTFSLLTDSTEKIVIPLIEEASKAETSSYVASSSTTIVGLHIADALRRSNTKGSMSDGSYSPDYSLAAVDLKSFKNNLVDIIQQNKERWKELAAQEARTSSQKCEFIHQ [PDE1A]”, the values for the melting temperature in series [1] (cell cycle stage: G1/S) and in series [1] (cell cycle stage: mitosis) were 55.2 °C and 54.1 °C, respectively. The “solubility change mitosis (log2)” value in series [2] was -0.0985. Besides, the thermal stability score in series [3] (setting [5]) came to 1.43; in series [3] (cell cycle stage: mitosis) it was 2.27. Besides, the “solubility in G1/S (log2)” value in series [4] is -0.162.

These data come from the supplement of paper PMC5998384.
